Here are results for two substances from article PMC8032703.

In experiment [1] the target is recombinant FlaB (Vibrio vulnificus MO6-24/O).
Experiment [2] has the same target. This is another data set of the same source.
In experiment [3] the target is FlaBΔN0C0 (truncated FlaB, from L54 to S332) (Vibrio vulnificus MO6-24/O).
Experiment [4] concerns the target FlaBΔC1 (truncated FlaB, from M1 to A287) (Vibrio vulnificus MO6-24/O).
Experiment [5] deals with FlaBΔN1 (truncated FlaB, from K162 to G377) (Vibrio vulnificus MO6-24/O).
The target in experiment [6] is recombinant FlaB (Vibrio vulnificus MO6-24/O). This is another data set of the same source.
Experiment [7] deals with FlaBΔC0 (truncated FlaB, from M1 to S332) (Vibrio vulnificus MO6-24/O).
The target of experiment [8] is recombinant FlaB (Vibrio vulnificus MO6-24/O). The source holds these as a separate data set.

Regarding “recombinant DegQ (serine protease of the HtrA family) (enzyme)”, the averaged EC50 of rDegQ for in vitro proteolysis of 1 μM rFlaB, as given for comparison with the FlaC mutant (Fig. 7b) in experiment [1] was 140 nM. Also, the EC50 of rDegQ (0-1.2 μM) proteolysing 50% of 1 μM rFlaB in vitro (SDS-PAGE densitometry), representative experiment in experiment [2] turned out to be 140 nM. In experiment [3], this substance showed an averaged EC50 of rDegQ for in vitro proteolysis of 1 μM FlaBΔN0C0 of 320 nM. This substance also yielded an averaged EC50 of rDegQ for in vitro proteolysis of 1 μM FlaBΔC1 in experiment [4] of 340 nM. This substance also displayed an averaged EC50 of rDegQ for in vitro proteolysis of 1 μM FlaBΔN1 in experiment [5] of 420 nM. The averaged EC50 of rDegQ for in vitro proteolysis of 1 μM rFlaB (three independent experiments) in experiment [6] turned out to be 130 nM. In addition, the averaged EC50 of rDegQ for in vitro proteolysis of 1 μM FlaBΔC0 in experiment [7] is 310 nM.

For the substance “recombinant FlaJ (flagellin-specific chaperone) (natural protein)”, in experiment [8], the protection of 1 μM rFlaB from proteolysis by 1.08 μM rDegQ with rFlaJ 0-6.67 μM; percent of rFlaB left at 0.56 μM FlaJ was found to be 77%.
